A short description of data set [1]: HeLa subcellular fractionation, anti-Flag western.
The nature of data set [2]: anti-Flag immunofluorescence, nucleus/cytoplasm densitometry. The settings on record: glycan lost.
The nature of data set [3]: OGT enzyme activity (Supplementary Fig. 5a,b). The settings on record: glycan lost; control: WT-OGT.

In PMC5054401 one finds localisation_or_trafficking and enzymatic_activity data, which are given here for four proteins.

B1: O-GlcNAc transferase (OGT): Mono-OGT S389A (protein)
parent chain: MASSVGNVADSTGLAELAHREYQAGDFEAAERHCMQLWRQEPDNTGVLLLLSSIHFQCRRLDRSAHFSTLAIKQNPLLAEAYSNLGNVYKERGQLQEAIEHYRHALRLKPDFIDGYINLAAALVAAGDMEGAVQAYVSALQYNPDLYCVRSDLGNLLKALGRLEEAKACYLKAIETQPNFAVAWSNLGCVFNAQGEIWLAIHHFEKAVTLDPNFLDAYINLGNVLKEARIFDRAVAAYLRALSLSPNHAVVHGNLACVYYEQGLIDLAIDTYRRAIELQPHFPDAYCNLANALKEKGSVAEAEDCYNTALRLCPTHADSLNNLANIKREQGNIEEAVRLYRKALEVFPEFAAAHSNLASVLQQQGKLQEALMHYKEAIRISPTFADAYSNMGNTLKEMQDVQGALQCYTRAIQINPAFADAHSNLASIHKDSGNIPEAIASYRTALKLKPDFPDAYCNLAHCLQIVCDWTDYDERMKKLVSIVADQLEKNRLPSVHPHHSMLYPLSHGFRKAIAERHGNLCLDKINVLHKPPYEHPKDLKLSDGRLRVGYVSSDFGNHPTSHLMQSIPGMHNPDKFEVFCYALSPDDGTNFRVKVMAEANHFIDLSQIPCNGKAADRIHQDGIHILVNMNGYTKGARNELFALRPAPIQAMWLGYPGTSGALFMDYIITDQETSPAEVAEQYSEKLAYMPHTFFIGDHANMFPHLKKKAVIDFKSNGHIYDNRIVLNGIDLKAFLDSLPDVKIVKMKCPDGGDNADSSNTALNMPVIPMNTIAEAVIEMINRGQIQITINGFSISNGLATTQINNKAATGEEVPRTIIVTTRSQYGLPEDAIVYCNFNQLYKIDPSTLQMWANILKRVPNSVLWLLRFPAVGEPNIQQYAQNMGLPQNRIIFSPVAPKEEHVRRGQLADVCLDTPLCNGHTTGMDVLWAGTPMVTMPGETLASRVAASQLTCLGCLELIAKNRQEYEDIAVKLGTDLEYLKKVRGKVWKQRISSPLFNTKQYTMELERLYLQMWEHYAAGNKPDHMIKPVEVTESA
Take B1: the localisation_or_trafficking entry is on record as “decreases” in data set [1] (glycan lost, control: Mono-OGT) and “decreases” in data set [2] (control: Mono-OGT).

B2: O-GlcNAc transferase (OGT): Thiamet-G (protein)
parent chain: MASSVGNVADSTGLAELAHREYQAGDFEAAERHCMQLWRQEPDNTGVLLLLSSIHFQCRRLDRSAHFSTLAIKQNPLLAEAYSNLGNVYKERGQLQEAIEHYRHALRLKPDFIDGYINLAAALVAAGDMEGAVQAYVSALQYNPDLYCVRSDLGNLLKALGRLEEAKACYLKAIETQPNFAVAWSNLGCVFNAQGEIWLAIHHFEKAVTLDPNFLDAYINLGNVLKEARIFDRAVAAYLRALSLSPNHAVVHGNLACVYYEQGLIDLAIDTYRRAIELQPHFPDAYCNLANALKEKGSVAEAEDCYNTALRLCPTHADSLNNLANIKREQGNIEEAVRLYRKALEVFPEFAAAHSNLASVLQQQGKLQEALMHYKEAIRISPTFADAYSNMGNTLKEMQDVQGALQCYTRAIQINPAFADAHSNLASIHKDSGNIPEAIASYRTALKLKPDFPDAYCNLAHCLQIVCDWTDYDERMKKLVSIVADQLEKNRLPSVHPHHSMLYPLSHGFRKAIAERHGNLCLDKINVLHKPPYEHPKDLKLSDGRLRVGYVSSDFGNHPTSHLMQSIPGMHNPDKFEVFCYALSPDDGTNFRVKVMAEANHFIDLSQIPCNGKAADRIHQDGIHILVNMNGYTKGARNELFALRPAPIQAMWLGYPGTSGALFMDYIITDQETSPAEVAEQYSEKLAYMPHTFFIGDHANMFPHLKKKAVIDFKSNGHIYDNRIVLNGIDLKAFLDSLPDVKIVKMKCPDGGDNADSSNTALNMPVIPMNTIAEAVIEMINRGQIQITINGFSISNGLATTQINNKAATGEEVPRTIIVTTRSQYGLPEDAIVYCNFNQLYKIDPSTLQMWANILKRVPNSVLWLLRFPAVGEPNIQQYAQNMGLPQNRIIFSPVAPKEEHVRRGQLADVCLDTPLCNGHTTGMDVLWAGTPMVTMPGETLASRVAASQLTCLGCLELIAKNRQEYEDIAVKLGTDLEYLKKVRGKVWKQRISSPLFNTKQYTMELERLYLQMWEHYAAGNKPDHMIKPVEVTESA
Regarding B2, the localisation_or_trafficking result in data set [1] (glycan gained, control: untreated cells) is listed as “increases”.

B3: O-GlcNAc transferase (OGT): OGT S389A (protein)
parent chain: MASSVGNVADSTGLAELAHREYQAGDFEAAERHCMQLWRQEPDNTGVLLLLSSIHFQCRRLDRSAHFSTLAIKQNPLLAEAYSNLGNVYKERGQLQEAIEHYRHALRLKPDFIDGYINLAAALVAAGDMEGAVQAYVSALQYNPDLYCVRSDLGNLLKALGRLEEAKACYLKAIETQPNFAVAWSNLGCVFNAQGEIWLAIHHFEKAVTLDPNFLDAYINLGNVLKEARIFDRAVAAYLRALSLSPNHAVVHGNLACVYYEQGLIDLAIDTYRRAIELQPHFPDAYCNLANALKEKGSVAEAEDCYNTALRLCPTHADSLNNLANIKREQGNIEEAVRLYRKALEVFPEFAAAHSNLASVLQQQGKLQEALMHYKEAIRISPTFADAYSNMGNTLKEMQDVQGALQCYTRAIQINPAFADAHSNLASIHKDSGNIPEAIASYRTALKLKPDFPDAYCNLAHCLQIVCDWTDYDERMKKLVSIVADQLEKNRLPSVHPHHSMLYPLSHGFRKAIAERHGNLCLDKINVLHKPPYEHPKDLKLSDGRLRVGYVSSDFGNHPTSHLMQSIPGMHNPDKFEVFCYALSPDDGTNFRVKVMAEANHFIDLSQIPCNGKAADRIHQDGIHILVNMNGYTKGARNELFALRPAPIQAMWLGYPGTSGALFMDYIITDQETSPAEVAEQYSEKLAYMPHTFFIGDHANMFPHLKKKAVIDFKSNGHIYDNRIVLNGIDLKAFLDSLPDVKIVKMKCPDGGDNADSSNTALNMPVIPMNTIAEAVIEMINRGQIQITINGFSISNGLATTQINNKAATGEEVPRTIIVTTRSQYGLPEDAIVYCNFNQLYKIDPSTLQMWANILKRVPNSVLWLLRFPAVGEPNIQQYAQNMGLPQNRIIFSPVAPKEEHVRRGQLADVCLDTPLCNGHTTGMDVLWAGTPMVTMPGETLASRVAASQLTCLGCLELIAKNRQEYEDIAVKLGTDLEYLKKVRGKVWKQRISSPLFNTKQYTMELERLYLQMWEHYAAGNKPDHMIKPVEVTESA
Take B3: in data set [3], the enzymatic_activity result is “no change”.

B4: O-GlcNAc transferase (OGT): 5-thio-GlcNAc (protein)
parent chain: MASSVGNVADSTGLAELAHREYQAGDFEAAERHCMQLWRQEPDNTGVLLLLSSIHFQCRRLDRSAHFSTLAIKQNPLLAEAYSNLGNVYKERGQLQEAIEHYRHALRLKPDFIDGYINLAAALVAAGDMEGAVQAYVSALQYNPDLYCVRSDLGNLLKALGRLEEAKACYLKAIETQPNFAVAWSNLGCVFNAQGEIWLAIHHFEKAVTLDPNFLDAYINLGNVLKEARIFDRAVAAYLRALSLSPNHAVVHGNLACVYYEQGLIDLAIDTYRRAIELQPHFPDAYCNLANALKEKGSVAEAEDCYNTALRLCPTHADSLNNLANIKREQGNIEEAVRLYRKALEVFPEFAAAHSNLASVLQQQGKLQEALMHYKEAIRISPTFADAYSNMGNTLKEMQDVQGALQCYTRAIQINPAFADAHSNLASIHKDSGNIPEAIASYRTALKLKPDFPDAYCNLAHCLQIVCDWTDYDERMKKLVSIVADQLEKNRLPSVHPHHSMLYPLSHGFRKAIAERHGNLCLDKINVLHKPPYEHPKDLKLSDGRLRVGYVSSDFGNHPTSHLMQSIPGMHNPDKFEVFCYALSPDDGTNFRVKVMAEANHFIDLSQIPCNGKAADRIHQDGIHILVNMNGYTKGARNELFALRPAPIQAMWLGYPGTSGALFMDYIITDQETSPAEVAEQYSEKLAYMPHTFFIGDHANMFPHLKKKAVIDFKSNGHIYDNRIVLNGIDLKAFLDSLPDVKIVKMKCPDGGDNADSSNTALNMPVIPMNTIAEAVIEMINRGQIQITINGFSISNGLATTQINNKAATGEEVPRTIIVTTRSQYGLPEDAIVYCNFNQLYKIDPSTLQMWANILKRVPNSVLWLLRFPAVGEPNIQQYAQNMGLPQNRIIFSPVAPKEEHVRRGQLADVCLDTPLCNGHTTGMDVLWAGTPMVTMPGETLASRVAASQLTCLGCLELIAKNRQEYEDIAVKLGTDLEYLKKVRGKVWKQRISSPLFNTKQYTMELERLYLQMWEHYAAGNKPDHMIKPVEVTESA
Take B4: the localisation_or_trafficking entry in data set [1] (glycan lost, control: untreated cells) is recorded as “decreases”; in data set [2] (control: untreated cells) it was “decreases”.
